Test results taken from patent CN113173995A (SHANGHAI PUBLIC HEALTH CLINICAL CT, dated 2021).

Key:
Test in all cases: cell-based or functional assay
SARS-CoV-2 S蛋白突变株E309D = SARS-CoV-2 S蛋白突变株E309D (SARS-CoV-2, UniProt P0DTC2 14-1273)
SARS-CoV-2 S蛋白突变株F342L = SARS-CoV-2 S蛋白突变株F342L (SARS-CoV-2, UniProt P0DTC2 14-1273)
SARS-CoV-2 S蛋白突变株A372T = SARS-CoV-2 S蛋白突变株A372T (SARS-CoV-2, UniProt P0DTC2 14-1273)
SARS-CoV-2 S蛋白突变株T376A = SARS-CoV-2 S蛋白突变株T376A (SARS-CoV-2, UniProt P0DTC2 14-1273)
SARS-CoV-2 S蛋白突变株P491A = SARS-CoV-2 S蛋白突变株P491A (SARS-CoV-2, UniProt P0DTC2 14-1273)

Measured: 假病毒中和 IC50 (Huh-7细胞, 荧光素酶)

B1: 全人源新型冠状病毒单抗REGN10989 (antibody, V domains shown)
VH: QVQLVQSGAEVKKPGASVKVSCKASGYIFTGYYMHWVRQAPGQGLEWMGWINPNSGGANYAQKFQGRVTLTRDTSITTVYMELSRLRFDDTAVYYCARGSRYDWNQNNWFDPWGQGTLVTVSS
VL: QSALTQPASVSGSPGQSITISCTGTSSDVGTYNYVSWYQQHPGKAPKLMIFDVSNRPSGVSDRFSGSKSGNTASLTISGLQAEDEADYYCSSFTTSSTVVFGGGTKLTVL
> 50 µg/mL: all assays above
